Data reported in article PMC6693562 (Cell Reports, 2019).

Target: the molecule itself
Assay: SEC-RALS

B1: MBP-OD^WT (human 53BP1 oligomerization domain, residues 1233-1288, fused to N-terminal maltose-binding protein) (domain or fragment, UniProt Q12888 1233-1288, looked up)
chain: GHVLHRHMRTIREVRTLVTRVITDVYYVDGTEVERKVTEETEEPIVECQECETEVS
  stoichiometry N: 4

B2: MBP-OD with mutation of D1256 (D1256A) (domain or fragment, human, UniProt Q12888 1233-1288, looked up)
chain: GHVLHRHMRTIREVRTLVTRVITAVYYVDGTEVERKVTEETEEPIVECQECETEVS
  stoichiometry N: 2
